Experimental findings from patent publication US20260274961A1 (BRIGHAM AND WOMEN S HOSPITAL, published 2026) are described below.

In test [1] the target is site-specific biotinylated monomeric human CD32a^R (FcγRIIa, arginine-131 variant), recombinant (human) (UniProt P12318). The experiment in a line: SPR (Biacore 3000), steady state, monomeric IgG, pH 7.4. Background: In SPR one partner is held on a chip, and binding of the other changes the refractive index at the surface.
For test [2], the target named is site-specific biotinylated monomeric human CD32a^H (FcγRIIa, histidine-131 variant), recombinant (human) (UniProt P12318). The test is described as above.
Test [3] shares this target. In words: SPR steady state (refers to Table 6).
Test [4] has as its target His-tagged soluble mouse FcRn (mFcRn), recombinant (mouse) (UniProt Q61559). The experiment in a line: method not stated; neutral pH.
Test [5] addresses T1, His-tagged soluble human FcRn (hFcRn), recombinant (human, UniProt P55899 24-290; P61769 21-119, limits assumed).
T1 construct: Made in an insect cell system 'as described previously'; also called recombinant hFcRn; hFcRn reporter complex (with ALP-conjugated hFcRn-specific nanobody)
In words: bridging ELISA at pH 5.5: hFcRn/ALP-nanobody reporter complex at one concentration on captured CD32a^H without IgG. (In general: An ELISA detects its analyte on a solid surface through an enzyme-linked reagent.)

Test [6] deals with T2, His-tagged soluble mouse FcRn (mFcRn), recombinant (mouse, UniProt Q61559 22-290; P01887 21-119, limits assumed).
T2 construct: Made in an insect cell system 'as described previously'; also called recombinant mFcRn
T2 sequence (looked up): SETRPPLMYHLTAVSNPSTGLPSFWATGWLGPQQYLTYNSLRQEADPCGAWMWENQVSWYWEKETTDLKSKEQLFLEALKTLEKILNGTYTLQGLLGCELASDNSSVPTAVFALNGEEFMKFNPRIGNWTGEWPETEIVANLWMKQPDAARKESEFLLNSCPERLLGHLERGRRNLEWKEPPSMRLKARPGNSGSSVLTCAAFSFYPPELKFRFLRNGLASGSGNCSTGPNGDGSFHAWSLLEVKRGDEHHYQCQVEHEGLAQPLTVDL
T2 sequence (b2m, looked up): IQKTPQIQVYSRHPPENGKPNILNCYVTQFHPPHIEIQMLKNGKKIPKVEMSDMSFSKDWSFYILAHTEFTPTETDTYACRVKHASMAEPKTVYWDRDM
The experiment in a line: SPR at pH 5.5: mFcRn injected alone over CD32a^H captured on neutravidin (variant as titled on the sheet); the concentration is not printed on the sheet.
Method: (§1) Recombinant C-terminus-biotinylated CD32a variants were captured on neutravidin-coated plates. Analyte(s) were then injected as indicated and specified in the material and methods. […] Recombinant C-terminus-biotinylated CD32a variants were captured on neutravidin amine-coupled CM5 sensor chips. Analyte(s) were then injected as indicated and specified in the material and methods.
(§2) The cDNAs encoding for CD32a^R and CD32a^H were subcloned into a pcDNA3.1 vector and sequences verified by DNA sequencing. […] To obtain clones with similar expression of CD32a^R or CD32a^H, transfected MDCK-II, HEK293T^H2-Kb, and RAW264.7 were processed by fluorescence-activated cell sorting (FACS; BD FACSAria II™). SPR and ELISA CD32a-IgG-FcRn binding SPR analysis was performed using a Biacore 3000™ instrument (GE Healthcare™). CM5™ sensor chips (GE Healthcare™) were coupled with neutrAvidin (Pierce™) (~1000 RU) using amine coupling chemistry, by injecting 5 g/ml in 10 mM sodium acetate, pH 4.5 (GE Healthcare™) at 25° C.).

The target in test [7] is T1, His-tagged soluble human FcRn (hFcRn), …. The experiment in a line: bridging ELISA at pH 5.5: hFcRn/ALP-nanobody reporter complex at one concentration on captured CD32a^R without IgG.
Test [8] addresses T2, His-tagged soluble mouse FcRn (mFcRn), …. The experiment in a line: SPR at pH 5.5: mFcRn injected alone over CD32a^R captured on neutravidin (variant as titled on the sheet); the concentration is not printed on the sheet.
Method: as §1, §2

T1 sequence (P55899 24-290 limits assumed, chain 1 of 2): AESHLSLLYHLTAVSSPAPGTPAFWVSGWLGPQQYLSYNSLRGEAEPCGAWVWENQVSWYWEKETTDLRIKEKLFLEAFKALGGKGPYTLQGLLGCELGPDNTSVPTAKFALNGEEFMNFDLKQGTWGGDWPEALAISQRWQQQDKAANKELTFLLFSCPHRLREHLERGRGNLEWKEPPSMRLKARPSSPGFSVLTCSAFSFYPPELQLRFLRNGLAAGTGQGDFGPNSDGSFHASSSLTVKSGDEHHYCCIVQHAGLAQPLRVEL
T1 sequence (P61769 21-119 limits assumed, chain 2 of 2): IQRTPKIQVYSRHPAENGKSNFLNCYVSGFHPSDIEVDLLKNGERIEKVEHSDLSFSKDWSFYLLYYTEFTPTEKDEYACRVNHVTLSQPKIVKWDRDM

Consider “anti-NIP chimeric IgG with wild type human IgG1 Fc (hIgG1^WT) (antibody)”, for which the Kd (as a rule, the concentration at which binding is half-saturated) was 2 µM in test [1] and 1.3 µM in test [2].

Turning to “anti-NIP hIgG1-I253A/H310A/H435A (hIgG1^IHH) (from UniProt P01857 1-330) (antibody)”, the dissociation constant Kd in test [2] is 4.8 µM.

“anti-NIP hIgG1-M252Y/S254T/T256E/H433K/N434F (hIgG1^MST/HN) (from UniProt P01857 1-330) (antibody)”: the decrease of binding against hIgG1^WT in test [3] came out at 50%. Also, the figures for the Kd in test [4] and in test [2] were 0.0074 µM and 2.8 µM, respectively.

B1: site-specific biotinylated monomeric human CD32a^H (FcγRIIa, histidine-131 variant), recombinant (receptor, UniProt P12318 34-218, looked up)
chain: QAAAPPKAVLKLEPPWINVLQEDSVTLTCQGARSPESDSIQWFHNGNLIPTHTQPSYRFKANNNDSGEYTCQTGQTSLSDPVHLTVLSEWLVLQTPHLEFQEGETIMLRCHSWKDKPLVKVTFFQNGKSQKFSHLDPTFSIPQANHSHSGDYHCTGNIGYTLFSSKPVTITVQVPSMGSSSPMGI
modifications: C-terminus biotinylated
notes: Bought recombinant protein; also called CD32a-H131; C-terminus biotinylated CD32a^H
Take B1: the binding result in test [5] and in test [6] was “no binding” throughout.

B2: site-specific biotinylated monomeric human CD32a^R (FcγRIIa, arginine-131 variant), recombinant (receptor, UniProt P12318 34-218, looked up)
chain: QAAAPPKAVLKLEPPWINVLQEDSVTLTCQGARSPESDSIQWFHNGNLIPTHTQPSYRFKANNNDSGEYTCQTGQTSLSDPVHLTVLSEWLVLQTPHLEFQEGETIMLRCHSWKDKPLVKVTFFQNGKSQKFSRLDPTFSIPQANHSHSGDYHCTGNIGYTLFSSKPVTITVQVPSMGSSSPMGI
modifications: C-terminus biotinylated
notes: Bought recombinant protein; The substitution is written against the histidine-131 form; also called CD32a-R131; C-terminus biotinylated CD32a^R
Turning to B2, the binding result in test [7] and in test [8] was “no binding” throughout.
